Experimental data taken from patent US20230265187A1 (published 2023).
Residue numbers refer to the chain shown, from its start.

B1: 43586p2.B05 (scFv, V domains shown)
VH: EVQLLESGGGLVQPGGSLRLSCAASGFTFSDYYMNWVRQAPGKGLEYVASINWNGGTTYYADSVKGRFTISRDNSKNTLYLQMSSLRAEDTAVYYCAKDQNWNFYYGMDVWGQGTTVTVSS
VL: QSVLTQPPSASGTPGQRVTISCSGGSSNIGNNFVSWYQQLPGTAPKLLIYNEIKRPSGVPDRFSASKSGTSASLAISGLQSEDEADYYCASWDGSLRGWVFGGGTKLTVL
B2: 43586p2.C01 (scFv, V domains shown)
VH: B1 VH with S84N
VL: B1 VL
B3: 43645p1.F12 (scFv, V domains shown)
VH: EVQLLESGGGLVQPGGSLRLSCAASGFTFSDYWMSWVRQAPGKGLEWVSSINWNGDNTYYYADSVKGRFTISRDNSKNTLYLQMNSLRAEDTAVYYCAKSHTVLQYGMDVWGQGTTVTVSS
VL: QSVLTQPPSASGTPGQRVTISCSGSSSNIQSNYVYWYQQLPGTAPKLLIYGNHQRPSGVPDRFSGSKSDTSASLAISGLQSEDEADYYCATWDASLNVWVFGGGTKLTVL
B4: 43645p1.C11 (scFv, V domains shown)
VH: EVQLLESGGGLVQPGGSLRPSCATSGFTFSSYWMSWVRQAPGKGLEWVSGIHISDSTYYADSVKGRFTISRDNSKNTLYLQMNSLRAEDTAVYYCAKGHTVLQYGMDVWGQGTTVTVSS
VL: QSGLTQPPSASGTPGQRVTISCSGDISNTRNNYVSWYQQLPGTAPKLLIYGNHQRPSGVPDRFSGSKSATSASLAISGLQSEDEADYYCGTWDNTLNAWVFGGGTKLTVL
B5: 43352p1.A11 (scFv, V domains shown)
VH: DVQLVESGGGVVRPGESLRLSCAASGFTFSSHAMSWVRQAPGEGLEWVSLTSGNGVSAYYADSVKGRFTISRDNSKNTLYLQMNSLSAEDTAIYYCARGTYLISFFDYWGLGTLVTVSS
VL: QSVLTQPPSASGTPGQRVTISCSGISAKIGNNYVSWYQQLPGTAPKLLIYFNNQRPSGVPDRFSGSKSGTSASLAISGLQSEDEADYYCASWDDSLNAWLFGGGTKLTVL
B6: 43352p1.D11 (scFv, V domains shown)
VH: B5 VH with T51I
VL: B5 VL
B7: 43586p2.F10 (scFv, V domains shown)
VH: VESGGGLVQPGGSLRLSCAASGFTVSDHYVSWVRQAPGKGLEWVSTSSSTNWNDGRTYYADSVKGRFTISRDNSENTLYLQMNSLRAEDTAVYYCAKDQYKGNDYYYYGMDVWGQGTTVTVSS
VL: QSVLTQPPSASGTPGQRVTISCSASNSYIGTKYFYWYQQLPGTAPKLLIYLDSQRPSGVPDRFSGSKSGTSVSLAISGLQSEDEADYYCAFWDDHLHGWVFGGGTKLTVL
B8: 43586p1.2.A4 (scFv, V domains shown)
VH: EVQLLESGGGLVQPGGSLRLSCAASGFTVSDHHMSWVRQAPGKGLEWVSGIDPGGKTYYVDSVKGRFTISRDNSKNTLYLQMNSLRAEDTAVYYCAREQYDWNDDMDVWGQGTTVTVSS
VL: QSVLTQPPSASGTPGQRVTISCSGSRSNVGDHYVSWYQQFPGTAPKLLIYANYQRPSGVPDRFSGSKSGTSASLAISGLQSEDEADHYCASWDASLNVWVFGGGTKLTVL
B9: 43645p1.B8 (scFv, V domains shown)
VH: EVQLLESGGGLVQPGGSLRLSCAASGFTFSDFWMSWVRQAPGKGLEWVSSIINIQTYDYATYYADSVKGRFTISRDNSKNTLYLQMNSLRAEDTAIYYCAKDVAPGLPGGMDVWGQGTTVTVSS
VL: QSVLTQPPSASGTPGQRVTISCSGSNSNIRNNFVSWYQHLPGMAPKLLIYGNSQRPSGVPDRFSGSKSGTSASLAISGLQSEDEADYYCTSWDFSVNGWVFGGGTKLTVL
B10: 43645p1.C9 (scFv, V domains shown)
VH: B9 VH
VL: B9 VL with M43T, N97S
B11: 43645p1.F7 (scFv, V domains shown)
VH: B9 VH
VL: B9 VL with M43T
B12: 43586p2.B03 (scFv, V domains shown)
VH: EVQLLESGGGWVQPGGSLRLSCAASGFTFIDYWMSWVRQAPGKGLEWVSSISWIGDTTFYADSVKGRFTISRDSSLNTVYLQMNSLRAEDTAVYYCAKHWTVYQYGMDVWGQGTTVTVSS
VL: QSVLTQPPSASGTPGQRVTISCSGGSSKIGSKYVHWYQQLPGTAPKLLIYKDDQRPSGVPDRFSGSKSGTSASLAISGLQSEDEADYYCAAWDDRVNAWVFGGGTKLTVL

These binders were tested against T1, human TIGIT on Jurkat cells (TIGIT/NFAT reporter Jurkat cells, BPS Bioscience #60538); Promega TIGIT Effector … (human, UniProt Q495A1 22-244) (assay: flow cytometry, TIGIT/NFAT Jurkat cells, 10 ug/ml).
T1 construct: whole, on cells; Same protein on two bought Jurkat lines (flow cytometry: BPS; bioassay: Promega); also called hu TIGIT cells; cells expressing human TIGIT
T1 sequence (looked up): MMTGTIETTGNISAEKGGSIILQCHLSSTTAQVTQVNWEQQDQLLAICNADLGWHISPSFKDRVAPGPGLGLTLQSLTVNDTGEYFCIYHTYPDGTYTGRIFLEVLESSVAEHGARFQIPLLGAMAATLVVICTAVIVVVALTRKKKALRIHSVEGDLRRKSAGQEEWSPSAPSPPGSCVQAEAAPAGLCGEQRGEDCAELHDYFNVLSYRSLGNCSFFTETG

MFI [MFI]	Binder
9320	B1
7770	B2
4100	B3
9040	B4
8790	B5
8650	B6
14400	B7
13700	B8
9410	B9
16500	B10
15400	B11
6110	B12

The binders below were run against T2, His-tagged cynomolgus monkey TIGIT (Acro Biosystems #TIT-05223) (cynomolgus monkey, UniProt A0A7N9I9V4 89-209) (assay: SPR (Carterra LSA), scFv-Fc captured, His-TIGIT analyte).
T2 construct: Bought protein; also called cyno TIGIT; cynomolgus TIGIT; not shown: His tag
T2 sequence (A0A7N9I9V4 entry or part of it): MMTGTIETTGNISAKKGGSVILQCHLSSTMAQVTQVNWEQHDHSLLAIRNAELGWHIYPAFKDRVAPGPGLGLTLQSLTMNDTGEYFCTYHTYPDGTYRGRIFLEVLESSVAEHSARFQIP
Experimental: (§1) Binding affinities of anti-TIGIT antibodies to human, cyno, and murine TIGIT were measured by Surface Plasmon Resonance (SPR) on a Carterra LSA instrument. Goat anti-human Fc antibody was amine coupled to a HC30M chip. ScFv-Fc supernatants were diluted 30-fold with HBSTE and were captured by the anti-human Fc coupled HC30M chip. A 1:2 dilution series of his-tagged human TIGIT, starting at 400 nM, was injected onto the chip for binding. A dilution series was also carried out for cyno TIGIT and murine TIGIT. Data were analyzed using the Carterra™ Kinetics software.

Kd [nM]	Binder
23.5	B10

What follows are binders tested against T3, his-tagged human TIGIT (Acro Biosystems #TIT-H52H3) (human, UniProt Q495A1 22-141) in the same assay as above.
T3 construct: Bought protein; also called His-tagged-TIGIT (human); not shown: his tag
T3 sequence (looked up): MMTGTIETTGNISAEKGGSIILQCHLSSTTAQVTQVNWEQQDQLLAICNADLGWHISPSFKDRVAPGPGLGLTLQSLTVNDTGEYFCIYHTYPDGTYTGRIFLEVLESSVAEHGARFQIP
Experimental: as §1

Kd [nM]	Binder
0.119	B1
0.151	B2
0.0888	B4
0.0716	B5
0.0685	B6
0.0906	B9
0.195	B10
0.0741	B11
67.3	B12

These binders were tested against T2, His-tagged cynomolgus monkey TIGIT … (assay: ELISA, coated His-TIGIT, 1 ug/ml).

Elisa OD450 [OD450]	Binder
1.32	B1
1.32	B2
0.069	B3
1.65	B4
0.048	B5
0.044	B6
0.987	B7
0.239	B8
1.38	B9
1.39	B10
1.52	B11
0.047	B12

What follows are binders tested against T4, his-tagged murine TIGIT (Acro Biosystems #TIT-M52E6) (murine, UniProt P86176 29-148, limits assumed) (assay: ELISA, coated His-TIGIT, 1 ug/ml).
T4 construct: Bought protein; also called mouse his-tagged TIGIT; not shown: his tag
T4 sequence (looked up): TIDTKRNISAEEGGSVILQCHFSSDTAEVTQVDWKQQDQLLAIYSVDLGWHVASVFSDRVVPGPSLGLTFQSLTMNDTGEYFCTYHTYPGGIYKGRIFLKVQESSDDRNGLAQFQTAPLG

Elisa OD450 [OD450]	Binder
0.07	B1
0.046	B2
0.052	B3
1.69	B4
0.056	B5
0.046	B6
1.29	B7
1.82	B8
0.052	B9
0.065	B10
0.489	B11
0.047	B12

These binders were tested against T3, his-tagged human TIGIT (Acro Biosystems …) (assay: ELISA, coated His-TIGIT, 1 ug/ml).

Elisa OD450 [OD450]	Binder
1.84	B1
1.81	B2
0.477	B3
2.18	B4
0.677	B5
2.15	B6
1.75	B7
1.69	B8
1.76	B9
1.86	B10
1.97	B11
1.16	B12

Each binder was assayed against T1, human TIGIT on Jurkat cells (TIGIT/NFAT …) (assay: cell-based or functional assay).

max. signal (% of 22G2)	Binder
119 % of 22G2	B4
101 % of 22G2	B5
105 % of 22G2	B6
